test: yeast display, Sf9 membrane polyspecificity reagent, FACS + sequencing; frameworks hold sequencing errors
In short: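 After 36–48 hours of galactose induction, yeast (Saccharomyces cerevisiae BJ5465) displaying a synthetic nanobody library were stained at 4 °C for 1 hour with 10% biotinylated, detergent-solubilized Sf9 membrane reagent. Streptavidin microbeads enriched the stained cells before FACS sorting into low and high (top ~1%) gates on anti-HA and streptavidin fluorescence. Each clone's polyreactivity label reflects its gate of origin.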

Sequence	polyreactivity (PSR sort gate)
QVQLVESGGGLVQAGGRLRLSCAASGFIFSNYAMGWYRQAPGKERELVAAISKSGGGTSYADSVKGRFTISRDTAMNTVYLQMNSLKPEDPAGYYCAARVRQIRVDYWGQGTQVTVSS	high polyreactivity
QVQLVESAGGLVQAGGSLRLSCAASGSIFYRNVMAWYRQAPGQERELVAAITWSGGSTYYADSVKGRFTISRDNAKNTVYLQMNSLKPEDTAVYFCAAASKATYRGKVSGYYYWGQGTQVTVSS	high polyreactivity
QVQLVESGGGLVQAGGSLRLSCAATGFTFFRYAMGWYRQARGKERELVAAITYSGSSTYYADSVKGRFTISRDNAKNTGYLQRNSLKPEDTAVYYCNAVQGFYSWVLYYYAYDYWGQGTQVTVSS	high polyreactivity
QVQRVESGGGLVQAGGSLRLSCAASGSIFPYYAMGWYRQAPGKETELVATITYRGGSTNYADSVKGRFTISRDNAKNTVYLQMNSLKPEDTAVYSCAAYGYVLASPYPYSFVKLGYCGQGTQVTVSS	low polyreactivity
QVQLVESGGGLVQAGGSLRLSCAASGRIFVIYGRGWYRPAPGKERELVATISWSGSSTSYADSVKGRFTISRDNAKNTVYLQMNSLKPEDTAVYYCAAYTWYSRHRMNYWGQGTQVTVSS	high polyreactivity
QVQIVESGGGLVQAGGSLRLSCAASGYIFSVYAMGWYRQAPGKERELVAAITFRTGRTYYADSVKWRFTISRDNAKNTVYLQMNSLKPEDTAVSYCAADGYWTTFYNLYGYWGQGTQVTVSS	high polyreactivity
QVQLVESGGGLVQAGGSLRLSCAASGSLFGDYVMGWSRQAPGKERELVAAINRGGSTYYADSVKGRFTISRDNAKNTVYLQMNSLKPEDTAVYYGAAGYPSWYYGYPYDSWGQGTQVTVSS	low polyreactivity
QVQLVESGGGLVQAGGSLRLSCAASGRTLSHYAMGWYRQAPGKERELVAAISQSGGSTRYADSVKGRFTISRDNAKNTVYLQMISLKPEDTAVYYCAVRQLYSYPGDRRGYYWGQGTQVTVSS	high polyreactivity
QVQLVESGGGLVQAGGSLSLSCAASGSTFVGYAMGWYRQAPGKEREFVAAITRGGSTNYADSVKGRFTISRDNAKNTVYLQMNSLNPEDTAVYYCAARDRREGFNFDYWGQGTQVTVSS	low polyreactivity
QVQLVESGGGLVQAGGSLRLSCAASGFTFPWYAMGSSRQAPGKERELVASISYRGDSTYYADSVKGRFTISRDNAKKTVNLQMNSLKPEDTAVYYCNKRLASYYLPGFDYWGQGTQVTVSS	low polyreactivity
QVQLVESGGGLVQAGGSLRLSCAASGRIFPFNAMGWYRQAPGKERELVAAITSSGGRTYYADSVKGRFTISRDNAKNTVYLQMNSLKPEDTAVYYCAATLVRRARSGPMGYWGQGTQVTVSS	high polyreactivity
QVQLVESGGGLVQAGGSLRLSCAASGSTFSSYAMGWYRQAPGKERELVAATYYADSVKGRFTISRDNAKNTVYLQMNSLKPEDTAVYYCNADNDYQGGKEYDYWGQGTQVTVSS	low polyreactivity
QVHLEESGGGLVQEGGSHRLSCAASGGTFFSYDMGWYRQAPGKERELVAAISATGGSTYYADSVKGRFTISRDNAKNTVYLQMNSLKPEDTAVYYCNAYQESGTYLRMDYWGQGTQVTVSS	low polyreactivity
QVQLVESGGGLVQAGGSLRLSCAASGRIFARYTMGWYRQAPGKEREFVAGIRSSGGRTYYADSVKGRFTISRDNAKNTVYLQMNSLKPEDTALYYCNAGGSWYFARYDYWGQGTQVTVSS	low polyreactivity
QVQLVESGGGLVQAGGSLRLSCAASGSTLSDNAMGWYRQAPGKERELVASISWSGGTYYADSVKGRFTISRDNAKNTVYLQMNSLKPEDTAVYYCAAYIYYNYSRQYWYDYWGQGTQVTVSS	low polyreactivity
QVQLVESGGGLVQAGGSLRLSCAASGSIFGGNAMGWYRQAPGKERELVATIDFSGTSTYYADSVKGRFTISRDNAKITVYLQMNSLKPEDTAVYYCAVRSGYVNRRYDYWGQGTQVTVSS	low polyreactivity
QVQLLESGGGLVQAGGSLRLSCAASGITFSQYAMGWYRQAPGKERELVAAISWSGGSTYYANSVKGRFTISRDNAKNTVYLQMNSLKPEDTAVYYCAAVPVHTGSLYWGFTTGYDYWGQGTQVTVSS	low polyreactivity
QVQLVESGGGLVQAGGSLRLSCAASGSILPRYGMGWYRQAPGKEREFVAAISWRGGRTYYADSVKGRFTISRDNAKNTVYLQMNSLKPEDTAVYYCAARANIYTRLDYWGQGTQVTVSS	high polyreactivity
QVQLVESGGGLVQAGGSLRLSCGASGRNFPGNAMGWYRQAPGKEREFVAVITSRTGNTYYADSVKGRFTISRDTAKNTVYLQMNSLKPEDSAVYYCNGEQYIWSEDYWGQGTQVSVSS	low polyreactivity
QVQIVDSGGGLVQAGGSLRLSCAASGRIIPANAMGWYRQAPGKERELVAAIDYDGGSTYYADSVKGRFTISRDNAKNTVYLQMNSLNPEVTAVYYCAADFYDYEGSYYDYYWGQGTQVTVSS	high polyreactivity
QVQLEESGGGLVQAGGSLRLSCAASGFTLRGYAMGWYRQAPGKERELVAAINGGGSTYYADSVKGRFTISRDNAKNTVYLQMNSLKPEDTAVYYCAVRIRKTAFRVLRYNYWGQGTQVTVSS	high polyreactivity
QVQLVESGGGLVQAGGSLRLSCAASGFIFTDNAMGWYRQAPGKERELVAAISKNGGSTYYADSVKGRFTISRDNAKNTVYLQMNSLKPEDTAVYYCNTRRKNFDKSSQVEYWGQGTQVTVSS	high polyreactivity

Sequence	polyreactivity (PSR sort gate)
QVQLVESGGGLVQAGGSLRLSCAASGSNFAVYAMGWYRQAPGKERELVATIRWNGGSTYYADSVKGRFTISRDNAKNTVYLQMNSLKQEDTAVYYCAKEYSTYVSKKSAYRYYYWGQGTQVTVSS	high polyreactivity
QVQLVESGGGLVQAGGSLRLSCAASGSIFRDNAMGWYRQAPGKERELVAAINVRDGDTFYADSVKGRFTISRDNAKNTVYLQMNSLKPEDTAVYYCAVPGATSYFAYDSWGQGTQVTVSS	low polyreactivity
QVQLVESGGGLVQAGGSLRLICAASGSIFSGYAMGWYRQAPGKERELVAAITTSGGSTYYADSVKGRFTISRENAKNTVYLPMNSLNPEDTSVYYCAAGWLYSRYARVYYWGQGTQVTLSS	high polyreactivity
QVQLVESGGGLVQAGGSLRLSCAASGSIFDYYAMGWYRPAPVKERELVAAISDSGSTYYADSVKGRFTISRDNAKNTVYLQMNSLKPEDTAVYYCAAVLWSPYLSEPLETYEYWGQGTQVTVSS	low polyreactivity
QVQLGESGGGLVQAGGSLRLSCAASGFTFHKNAMGWYRQAPGKERELVAVISQSASSTYYSDSVKGRFTISRDIAKITVYLQMNGLKPEDTAVYYCNAKYYRYNRRNYWGQGTQVTVSS	high polyreactivity
QVQLVESGGGLVQAGGSLRLSCAASGSIFYVYAMGWYRQAPGKERELVAAISRRGARTYYADSVKGRFTISRDTAKYPVYLQMNSLQPEDTAVYYCNADQYSTVGYSAEYEYWGHGTQVTVSS	low polyreactivity
QVQLVESGGGLVQAGGTLSLSCAASGGTFSTNTMGWYRQATGKERELVAAITEGTGNTYYADSVKGRFTISRDNAKNTVYLQMNSLKPEDTAVYYCATAYAVYHVEYGYWGQGTQVTVSS	low polyreactivity
QVQLVDSGGGLVQAGGSLSLSCAASGSTFGYYSMGWYRESPGKERELVAAITWSGDSTYADSVKGRFTISRDNAKNTVYLQMNSLKPEDTAVYYCARRGFLGHWPRPSYDYWGQGTQVTVSS	low polyreactivity
QVQLVESGGGLVQAGGSLRLSCAASGSIFRAYAMGWYRQAPGKERELVAAISWGGGSTSYADSVKGRFTISRDNAKNTVYLQMNSLKPEDTAVYFCNKVSFSKRRDYYWGQGTQVTVSS	high polyreactivity
QVQLVESGGGLVQAGGSLRLSCAASGLTFQENAMGWYRQAPGKERELVASITPIGGSTYYADSVKGRFTISRDNAKNTVYLQMKSLKPEDTAVYYCAARSPIYATYGHDYWGQATQVTVSS	low polyreactivity
QVQLVESGGGLVQSGGSLRLSCAASGRTFKSYAMGWYRQAPGKERELVAAITWSGGSTYYADSVKGRFTISRDNAKITVYFQMNSLKPEDTAVYYCAADSVYYYWYGYDYWGQGTQVTVSS	low polyreactivity
QVQLVESGGGLVQAGGSLRLSCAASGSTFVGYTMGWYIQAPGKERELVAAISRGGGSTYYADSVKGRFTISRDNAKNTVYLQMNSLKPEDTAVYYCAATGFYARLSSIYYYWGQGTQVTVSS	high polyreactivity
QVQLVESGGGLVQAGGSLRFSCAASGFIFVSNAVGWYRQAPGKERELVAAISRRGGRTYYADSVKGRFTISRDNEKNTVYVPMNSLKPEDTAVYDCAADQYRVSHQWYDYWGQGTQVTVSS	high polyreactivity
QVQLVESGGGLVQAGGSLRLSCAASGSIFSFYAMGSYRQAPGKERELVAAISWSGGSTYYADSVKGRFTISRDNAKNTVYLLMNSLKPEDTAVYYCAREKAVSYYGYDHWGQGTQVTVSS	low polyreactivity
QVQLVESGGGLVQAGGSLRLICAASVTTFPYYAMGWYRQAPGKERELVAAITSSGGSTYYADSVKGRFTISRDNAKNTVYLQMNSLIPEDTAVYYCAKGYGPYRQMNYWGQGTQVTVSS	low polyreactivity
QVHLVESGGGLVQAGGSLRLSSSASGIIFGRNTMGWYRQAPGKEREMVAAITSSGITYYADSVKGRFTISRDNAKNTVYFQMNSLKPEDTAVYYCYSDWTYADPNEYGYWGQGTQVTVSS	low polyreactivity
QVQRVESGGGLVQAGGSLRLSCAGCGRIFHYYAMGWYRQAPGKEMELVAAITSSGGSTYYADSVKGRFTISRDHPKNTVYLQMNSLKPEDTAVYYCAAGLIVGRFLRYDYWGQGTQVTVSS	high polyreactivity
QVHLVESGGGLVQAGGSLRLSCAASGRTFDVYAMGWYRQATGKERQLVATISYRSARTYYADSVKGRFTISRDNAKNTVYLQMNSLKPEDTAVYYCAAYFETWHGFGYWGQGTQVTVSS	high polyreactivity
QVQLVESGGGLVQAGGSLRLSCAASGSTFNKYAMGWYRQAPGKERELVAAIRSNGVRTYYADSVKGRFTISRDNAKNTVYLQMNSLKPEDTAVYYCNKRYTYRYDYWGQGTQVTVSS	high polyreactivity
QVQLVESGGGIVQAGGSLRLSCAASVFTFRANTMGWYRPAPGKERELVAAISPSGGSTYYADSVKGRFTISRDNAKNTVYLQMNSLKPEDTAVYYCNADIEYRPGHGRLGDYDYWGQGTQVTVSS	low polyreactivity
QVQLVESGGGLVQAGGSLRLSCAASGLTFAYYAMGWYRQAPGKETELVAAISWNGARTYYADSVKGRFTISRDNSKNTVYLQMNSLKPEDTAVYYCAAVRSASSWQYIWLKYYYWGQGTQVTVSS	high polyreactivity

From the nanobody polyreactivity screen of Harvey et al. (2022)
